B1: 14-3-3 protein gamma (Mus musculus), P61982 (parent)
chain: MVDREQLVQKARLAEQAERYDDMAAAMKNVTELNEPLSNEERNLLSVAYKNVVGARRSSWRVISSIEQKTSADGNEKKIEMVRAYREKIEKELEAVCQDVLSLLDNYLIKNCSETQYESKVFYLKMKGDYYRYLAEVATGEKRATVVESSEKAYSEAHEISKEHMQPTHPIRLGLALNYSVFYYEIQNAPEQACHLAKTAFDDAIAELDTLNEDSYKDSTLIMQLLRDNLTLWTSDQQDDDGGEGNN

Variants of: B1
Details: with lrrk2_mouse Lrrk2, Q5S006
lrrk2_mouse Lrrk2, Q5S006, sequence (Q5S006 whole entry): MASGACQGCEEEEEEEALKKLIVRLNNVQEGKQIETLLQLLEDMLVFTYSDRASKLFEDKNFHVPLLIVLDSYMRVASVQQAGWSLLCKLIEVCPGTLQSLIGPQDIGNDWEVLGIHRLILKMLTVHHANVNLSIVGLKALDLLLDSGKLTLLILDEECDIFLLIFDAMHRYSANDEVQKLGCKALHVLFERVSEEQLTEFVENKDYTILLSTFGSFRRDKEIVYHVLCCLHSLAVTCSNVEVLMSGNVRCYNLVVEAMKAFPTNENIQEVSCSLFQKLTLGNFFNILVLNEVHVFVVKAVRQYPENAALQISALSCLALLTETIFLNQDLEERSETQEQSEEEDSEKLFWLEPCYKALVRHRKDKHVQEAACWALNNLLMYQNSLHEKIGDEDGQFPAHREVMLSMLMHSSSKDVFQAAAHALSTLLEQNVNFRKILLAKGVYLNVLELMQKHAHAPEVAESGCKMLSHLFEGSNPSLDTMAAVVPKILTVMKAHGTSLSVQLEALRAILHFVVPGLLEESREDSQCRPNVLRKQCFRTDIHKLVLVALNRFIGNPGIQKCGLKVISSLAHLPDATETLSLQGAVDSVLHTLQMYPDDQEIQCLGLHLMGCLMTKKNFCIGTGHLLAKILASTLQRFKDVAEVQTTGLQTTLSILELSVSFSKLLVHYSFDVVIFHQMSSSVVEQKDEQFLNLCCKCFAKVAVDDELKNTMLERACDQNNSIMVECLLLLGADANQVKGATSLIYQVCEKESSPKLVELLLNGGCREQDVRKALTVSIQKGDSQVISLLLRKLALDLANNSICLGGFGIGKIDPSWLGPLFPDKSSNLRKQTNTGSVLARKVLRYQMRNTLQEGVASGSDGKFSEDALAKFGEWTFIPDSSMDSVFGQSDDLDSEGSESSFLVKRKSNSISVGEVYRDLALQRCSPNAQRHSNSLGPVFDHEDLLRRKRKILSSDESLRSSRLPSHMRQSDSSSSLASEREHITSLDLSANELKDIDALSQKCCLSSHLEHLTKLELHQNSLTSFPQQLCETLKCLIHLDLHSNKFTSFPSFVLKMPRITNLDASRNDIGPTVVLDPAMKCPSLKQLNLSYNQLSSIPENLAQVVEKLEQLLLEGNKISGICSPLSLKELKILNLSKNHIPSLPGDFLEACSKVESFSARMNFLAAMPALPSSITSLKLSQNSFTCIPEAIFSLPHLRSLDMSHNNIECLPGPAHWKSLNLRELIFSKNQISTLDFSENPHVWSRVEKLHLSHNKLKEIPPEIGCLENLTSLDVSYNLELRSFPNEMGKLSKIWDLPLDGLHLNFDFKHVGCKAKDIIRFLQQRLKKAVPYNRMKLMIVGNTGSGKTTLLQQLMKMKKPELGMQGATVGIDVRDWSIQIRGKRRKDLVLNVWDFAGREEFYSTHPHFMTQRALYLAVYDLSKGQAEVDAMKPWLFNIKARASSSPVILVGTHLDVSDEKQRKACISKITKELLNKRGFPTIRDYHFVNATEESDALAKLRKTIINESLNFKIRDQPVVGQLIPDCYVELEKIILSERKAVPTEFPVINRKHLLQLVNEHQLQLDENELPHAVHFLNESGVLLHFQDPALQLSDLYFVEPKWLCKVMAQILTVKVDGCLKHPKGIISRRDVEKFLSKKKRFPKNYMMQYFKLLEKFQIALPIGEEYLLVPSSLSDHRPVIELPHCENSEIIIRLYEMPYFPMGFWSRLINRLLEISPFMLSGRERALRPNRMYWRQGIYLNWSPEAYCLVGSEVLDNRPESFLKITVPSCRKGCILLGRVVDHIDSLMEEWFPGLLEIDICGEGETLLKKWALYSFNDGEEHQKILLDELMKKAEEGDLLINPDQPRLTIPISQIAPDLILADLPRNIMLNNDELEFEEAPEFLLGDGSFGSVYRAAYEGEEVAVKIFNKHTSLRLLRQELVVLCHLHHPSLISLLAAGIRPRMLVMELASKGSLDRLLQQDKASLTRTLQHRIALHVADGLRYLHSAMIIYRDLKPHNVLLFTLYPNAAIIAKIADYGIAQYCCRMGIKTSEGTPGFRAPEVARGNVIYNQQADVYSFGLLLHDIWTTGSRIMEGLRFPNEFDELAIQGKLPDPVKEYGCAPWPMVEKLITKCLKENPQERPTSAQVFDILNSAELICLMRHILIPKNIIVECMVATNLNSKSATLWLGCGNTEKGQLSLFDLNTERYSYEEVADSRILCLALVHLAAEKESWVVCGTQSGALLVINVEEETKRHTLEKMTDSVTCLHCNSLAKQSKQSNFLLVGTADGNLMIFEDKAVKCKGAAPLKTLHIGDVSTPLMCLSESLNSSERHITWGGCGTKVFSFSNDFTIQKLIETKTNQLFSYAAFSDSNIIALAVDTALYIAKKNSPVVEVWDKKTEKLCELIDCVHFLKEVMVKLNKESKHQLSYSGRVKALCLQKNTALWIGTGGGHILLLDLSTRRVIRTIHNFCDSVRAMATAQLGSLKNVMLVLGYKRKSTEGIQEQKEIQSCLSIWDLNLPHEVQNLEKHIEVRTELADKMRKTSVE

| Variant | effect of a mutation on the interaction |
| --- | --- |
| MVDREQLVQKARLAEQAERYDDMAAAMKNVTELNEPLSNEERNLLSVAYENVVGARRSSWRVISSIEQKTSADGNEKKIEMVRAYREKIEKELEAVCQDVLSLLDNYLIKNCSETQYESKVFYLKMKGDYYRYLAEVATGEKRATVVESSEKAYSEAHEISKEHMQPTHPIRLGLALNYSVFYYEIQNAPEQACHLAKTAFDDAIAELDTLNEDSYKDSTLIMQLLRDNLTLWTSDQQDDDGGEGNN [K50E] | disrupting interaction |
| MVDREQLVQKARLAEQAERYDDMAAAMKNVTELNEPLSNEERNLLSVAYKNVVGARRSSWRVISSIEQKTSADGNEKKIEMVRAYREKIEKELEAVCQDVLSLLDNYLIKNCSETQYESKVFYLKMKGDYYRYLAEVATGEKRATVVESSEKAYSEAHEISKEHMQPTHPIRLGLALNYSDFYYEIQNAPEQACHLAKTAFDDAIAELDTLNEDSYKDSTLIMQLLRDNLTLWTSDQQDDDGGEGNN [V181D] | disrupting interaction |

From IntAct's records for PubMed 21390248
